Measurements as given in the supplement of paper PMC10724198.
± gives the standard deviation of the averaged measurements.

What follows are sequences tested on Saccharomyces cerevisiae (assay: protein stability index of tFT-peptide fusion (C-terminal peptide) (PSI (0-1 scale)); higher = more stable (slower turnover)). Settings: genetic background: das1 deletion; temperature: 30 C.
Description: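 MPS profiling in S. cerevisiae of the yeast C-terminome library: the last 12 aa of each annotated ORF are fused to the C-terminus of a sfGFP-mCherry timer, after a GGGS linker. Cells are FACS-sorted into 8 mCherry/sfGFP bins and deep-sequenced. PSI runs from 0 (unstable) to 1 (stable); wild type and das1Δ backgrounds, two technical replicates each.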

SKYNCNIPACCV [YLR122C C-terminal 12 aa] showed a protein stability index of 0.654 ± 0.017.

Same assay, conditions: genetic background: wild type; temperature: 30 C

First: QKNKKRKFSDTS [RNT1 C-terminal 12 aa]
Second: QLNLVVNGVRLN [YLR379W C-terminal 12 aa]
The protein stability index of the first is higher: 0.701 ± 0.018 for the first, 0.655 ± 0.016 for the second.

QMICPSLLGIRN [YHR130C C-terminal 12 aa] and QMRKNMTRTDEK [PKH1 C-terminal 12 aa] are within error of each other in protein stability index: 0.6986 ± 0.0069 for the first, 0.714 ± 0.026 for the second.

QNNNILNDMRVN [SPT23 C-terminal 12 aa] and QQQQQKKESSTA [GIM5 C-terminal 12 aa] are within error of each other in protein stability index: 0.689 ± 0.039 for the first, 0.7 ± 0.037 for the second.

Going from QRASSRPKERRK [MSB4 C-terminal 12 aa] to QRERINNYISVY [VMA6 C-terminal 12 aa], the protein stability index falls from 0.713 ± 0.016 to 0.388 ± 0.0092.

Going from QRSKSKRQKRRK [YNG1 C-terminal 12 aa] to QRTRRRMSLYKL [TOS3 C-terminal 12 aa], the protein stability index rises from 0.652 ± 0.036 to 0.853 ± 0.03.

QRVIKPSSALQF [ECM7 C-terminal 12 aa] and QSARRQRGSIAM [SDS24 C-terminal 12 aa] are within error of each other in protein stability index: 0.682 ± 0.035 for the first, 0.6657 ± 0.0037 for the second.

QSLKISKKRRRK [ZIP1 C-terminal 12 aa] and QSMLDGNSPESV [DCR2 C-terminal 12 aa] are within error of each other in protein stability index: 0.748 ± 0.086 for the first, 0.693 ± 0.021 for the second.

QTILKNKKKISQ [GYP6 C-terminal 12 aa] and QTVRKLDMDFEV [REV1 C-terminal 12 aa] are within error of each other in protein stability index: 0.6842 ± 0.0023 for the first, 0.656 ± 0.03 for the second.

QVYYELGQIPFE [MET18 C-terminal 12 aa] and QYMTSGYASNWN [YAR061W C-terminal 12 aa] are within error of each other in protein stability index: 0.71 ± 0.011 for the first, 0.754 ± 0.096 for the second.

QYQHQHQQDPRT [NAF1 C-terminal 12 aa] and RATLNSVNSFLM [RIT1 C-terminal 12 aa] are within error of each other in protein stability index: 0.728 ± 0.049 for the first, 0.673 ± 0.023 for the second.

Going from RAVSGVELRIYV [POP7 C-terminal 12 aa] to “RAVTNRSSCSRR [YCR038W-A C-terminal 12 aa]”, the protein stability index rises from 0.641 ± 0.017 to 0.689 ± 0.0074.

RDAEILAKIAKD [HSP10 C-terminal 12 aa] and RDMVELMKFYEL [HOS1 C-terminal 12 aa] are within error of each other in protein stability index: 0.677 ± 0.0077 for the first, 0.6886 ± 0.0047 for the second.

RDVLDDGSNIMS [IAH1 C-terminal 12 aa] and REITKCKQIFHK [PTR3 C-terminal 12 aa] are within error of each other in protein stability index: 0.7 ± 0.0082 for the first, 0.686 ± 0.028 for the second.

REWFDIELNFSK [PMT4 C-terminal 12 aa] and RGENGQFWIGTK [BNI5 C-terminal 12 aa] are within error of each other in protein stability index: 0.73 ± 0.024 for the first, 0.702 ± 0.03 for the second.

Compared with RGIAAIRESLSN [YIR042C C-terminal 12 aa], RHELQALQAEIN [END3 C-terminal 12 aa] is lower in protein stability index: 0.697 ± 0.02 for the first, 0.614 ± 0.018 for the second.

RHRKSEDRSLEA [ATR2 C-terminal 12 aa] and RIAAGDGDDDDE [QCR9 C-terminal 12 aa] are within error of each other in protein stability index: 0.703 ± 0.062 for the first, 0.674 ± 0.041 for the second.

Going from RIEQNRPDDGVY [FMP16 C-terminal 12 aa] to RIYHVYGRFLIH [NCA2 C-terminal 12 aa], the protein stability index falls from 0.65 ± 0.017 to 0.404 ± 0.027.

“RKCRVYVIQDAF [YER084W-A C-terminal 12 aa]” and RKFHVVDTSLFA [MOG1 C-terminal 12 aa] are within error of each other in protein stability index: 0.67829 ± 0.00013 for the first, 0.688 ± 0.05 for the second.

First: RKSKKDTDSDSD [BMT5 C-terminal 12 aa]
Second: RKTIRRDLASLV [TMA108 C-terminal 12 aa]
The protein stability index of the first is higher: 0.695 ± 0.055 for the first, 0.571 ± 0.031 for the second.

RLEKEAKIKQEE [CDC11 C-terminal 12 aa] and RLGLDWQPDSVS [MTH1 C-terminal 12 aa] are within error of each other in protein stability index: 0.678 ± 0.032 for the first, 0.686 ± 0.039 for the second.

“RLLGPCFKTGGI [YLR154W-B C-terminal 12 aa]” and RLNKLEAVLQTL [PML39 C-terminal 12 aa] are within error of each other in protein stability index: 0.675 ± 0.043 for the first, 0.72 ± 0.011 for the second.

First: RLSMLRPPSSSS [RSC2 C-terminal 12 aa]
Second: RMHRRLPFPTLN [YJR142W C-terminal 12 aa]
The protein stability index of the first is higher: 0.7059 ± 0.0021 for the first, 0.548 ± 0.013 for the second.

“RNNEHSHKKYNQ [YER090C-A C-terminal 12 aa]” and RRAAIHPYFQES [CDC28 C-terminal 12 aa] are within error of each other in protein stability index: 0.729 ± 0.092 for the first, 0.687 ± 0.015 for the second.

“RRHFSERRLENK [YPR074W-A C-terminal 12 aa]” and RRPSSTSQYLIR [CDC20 C-terminal 12 aa] are within error of each other in protein stability index: 0.73 ± 0.025 for the first, 0.679 ± 0.038 for the second.

Going from RSNEEMYSWSRN [SPO74 C-terminal 12 aa] to RTQGEGQGSMFR [TAF11 C-terminal 12 aa], the protein stability index falls from 0.692 ± 0.0082 to 0.6719 ± 0.0047.

First: RTRPPTAVAHIA [DUG3 C-terminal 12 aa]
Second: RTTFRTLSSYGK [YHL041W C-terminal 12 aa]
The protein stability index of the first is lower: 0.337 ± 0.0086 for the first, 0.648 ± 0.037 for the second.

First: RTTGHNLKQDFN [BUD4 C-terminal 12 aa]
Second: RVVDLVEHVAKA [TDH2 C-terminal 12 aa]
The protein stability index of the first is lower: 0.653 ± 0.017 for the first, 0.6748 ± 0.0044 for the second.

RVYTEQNVPVVS [YNL194C C-terminal 12 aa] and RWELVRESWREL [HSV2 C-terminal 12 aa] are within error of each other in protein stability index: 0.684 ± 0.039 for the first, 0.786 ± 0.086 for the second.

SAIADDDEEHKE [LHP1 C-terminal 12 aa] and SAIEEGISLNKG [TEL2 C-terminal 12 aa] are within error of each other in protein stability index: 0.678 ± 0.051 for the first, 0.701 ± 0.012 for the second.

SAQRDRRYRKRN [RPS17B C-terminal 12 aa] and SATFTSDHIGHI [RIM21 C-terminal 12 aa] are within error of each other in protein stability index: 0.649 ± 0.018 for the first, 0.685 ± 0.042 for the second.

Compared with SDEFVDASEYKD [UTP9 C-terminal 12 aa], SDELSRNFDSQG [VPS3 C-terminal 12 aa] is higher in protein stability index: 0.6722 ± 0.0063 for the first, 0.726 ± 0.015 for the second.

SDVAKQLAALGY [RPL16A C-terminal 12 aa] and SETIEELLKEVE [HYR1 C-terminal 12 aa] are within error of each other in protein stability index: 0.677 ± 0.012 for the first, 0.7 ± 0.015 for the second.

Compared with SFDVLAKVPNAA [RPA190 C-terminal 12 aa], SFNEVVKEVQAL [NHP2 C-terminal 12 aa] is higher in protein stability index: 0.655 ± 0.011 for the first, 0.692 ± 0.019 for the second.

SFRLTKRQTDND [POS5 C-terminal 12 aa] and SFSYLWRNFGFI [PDR18 C-terminal 12 aa] are within error of each other in protein stability index: 0.709 ± 0.033 for the first, 0.716 ± 0.027 for the second.

SGAGARGSSAAA [LYS2 C-terminal 12 aa] and SGPSAMTKFGPR [ARP2 C-terminal 12 aa] are within error of each other in protein stability index: 0.676 ± 0.032 for the first, 0.6842 ± 0.0042 for the second.

Compared with SIDQFRGKLNSI [URA1 C-terminal 12 aa], SIFIASLLLAIV [FLO10 C-terminal 12 aa] is lower in protein stability index: 0.688 ± 0.013 for the first, 0.237 ± 0.0032 for the second.

Going from SILRIDDIAFSR [CCT4 C-terminal 12 aa] to SIYILNVIRNAQ [YGR117C C-terminal 12 aa], the protein stability index falls from 0.71 ± 0.034 to 0.538 ± 0.0088.

SKEKARALGSNF [GTT1 C-terminal 12 aa] and SKGSPINTQYVF [AGA2 C-terminal 12 aa] are within error of each other in protein stability index: 0.686 ± 0.013 for the first, 0.732 ± 0.056 for the second.

Compared with SKKTTISAKKQQ [SGE1 C-terminal 12 aa], SKQEKPLSRPKD [GPI15 C-terminal 12 aa] is higher in protein stability index: 0.51092 ± 0.00037 for the first, 0.684 ± 0.022 for the second.

Going from SKSFPTAGEMRA [PET8 C-terminal 12 aa] to SKTSHNPNEQSV [PDR11 C-terminal 12 aa], the protein stability index falls from 0.7283 ± 0.0038 to 0.687 ± 0.025.

SKYNCNIPACCV [YLR122C C-terminal 12 aa] gave a protein stability index of 0.6636 ± 0.0051.
